Patent US10507233B2, “Universal N-glycan binding reagent” (New England Biolabs, Inc., priority 2014, dated 2019)

T1: SNAP-Fbs: human Fbs sugar binding domain, wild type, SEQ ID NO: 2, fused to SNAP-tag (fusion SEQ ID NO: 3), on beads (Homo sapiens, UniProt Q9UK22)
T1 construct: SNAP-only beads as control
T1 sequence (Q9UK22 113-296): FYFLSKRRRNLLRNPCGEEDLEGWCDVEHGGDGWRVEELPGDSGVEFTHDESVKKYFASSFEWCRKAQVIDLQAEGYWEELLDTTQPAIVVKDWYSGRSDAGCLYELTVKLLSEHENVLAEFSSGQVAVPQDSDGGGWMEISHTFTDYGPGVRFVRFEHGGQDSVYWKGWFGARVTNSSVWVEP

T2: RNase B tryptic digest spiked with SGP (Homo sapiens, UniProt Q9UK22)
T2 construct: His6 (N); made in house; host or cells: E. coli
T2 sequence (Q9UK22 with tags, fused parts or gaps): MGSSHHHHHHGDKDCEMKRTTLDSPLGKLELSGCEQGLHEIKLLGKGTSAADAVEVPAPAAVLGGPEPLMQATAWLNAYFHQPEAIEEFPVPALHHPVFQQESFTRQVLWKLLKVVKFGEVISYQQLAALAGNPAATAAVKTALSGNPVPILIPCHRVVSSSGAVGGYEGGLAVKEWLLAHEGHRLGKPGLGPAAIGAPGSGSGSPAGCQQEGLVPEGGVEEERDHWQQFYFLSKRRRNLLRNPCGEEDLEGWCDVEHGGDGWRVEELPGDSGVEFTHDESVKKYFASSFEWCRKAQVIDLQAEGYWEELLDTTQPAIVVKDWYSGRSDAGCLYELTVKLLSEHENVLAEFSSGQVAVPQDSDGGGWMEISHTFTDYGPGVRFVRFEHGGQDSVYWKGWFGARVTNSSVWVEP

T3: SGP-TMR (Homo sapiens, UniProt Q9UK22)
T3 construct: His6 (N); made in house; host or cells: E. coli
T3 sequence (Q9UK22 with tags, fused parts or gaps): T2 sequence (Q9UK22 with tags, fused parts or gaps)

B1: wtFbs: sugar binding domain (position 113 to 296) of human Fbs, SEQ ID NO: 2, tested as SNAP-tag fusion (SEQ ID NO: 3), free or on BG beads (protein)
chain: T2 sequence (Q9UK22 with tags, fused parts or gaps)
modifications: SNAP-tag fusion; optionally on BG beads

What was measured:
[1] = molecular target: T1, SNAP-Fbs: human Fbs sugar binding domain, wild type, SEQ ID NO: 2, fused to SNAP-tag (fusion SEQ ID NO: 3), on beads; test: Binding of 2-AB labeled M3N2 to SNAP-Fbs beads versus SNAP control beads; settings: 50 picomoles, low salt buffer, SNAP-Fbs beads vs SNAP control beads
Protocol: SNAP-Fbs is efficiently conjugated to BG beads (SNAP Capture Pull-Down resin (New England Biolabs, Ipswich, Mass.): SNAP-Fbs protein is reacted with BG beads at 4° C. overnight in a DTT-containing buffer (4 mM DTT, 20 mM tris-HCl pH 7.5, 1 mM EDTA, 50 mM NaCl). After the conjugation reaction, SNAP-Fbs beads are washed with 40× bead volume of low salt buffer.
(§1) When PNGase F is used to trim N-glycans away from the peptides or proteins, the terminal GlcNAc residue becomes available for modification. A common modification is fluorophore labeling using 2-AB dye. The primary amino group of the dye performs a nucleophilic attack on the carbonyl carbon of the acyclic reducing terminal residue to form a partially stable Schiff's base. […] The conserved terminal GlcNAc residue is thus referred to as the “reducing end” of a glycan species. Upon 2-AB labeling, the carbohydrate ring structure is no longer capable of forming. Fifty picomoles of 2-AB labeled M3N2 in low salt buffer were incubated with SNAP-Fbs beads or SNAP control beads (SNAP Capture beads conjugated to SNAP-tag Purified Protein, New England Biolabs, Ipswich, Mass.).

[2] = Binding of 2-AB labeled M3N2 to SNAP-Fbs beads; settings: low salt buffer, versus SNAP control beads
Excerpt: as §1

[3] = molecular target: T2, RNase B tryptic digest spiked with SGP; test: Enrichment of N-glycopeptides from RNase B tryptic digest spiked with SGP (LC-MS); assay type: binding; settings: low salt or high salt volatile buffer, TIC
Excerpt: Fbs beads were used to capture and enrich N-glycopeptides from a complex mixture. The complex mixture was a tryptic digest of RNase B spiked with SGP to serve as a complex, sialylated glycopeptide. RNase B contains several non-glycosylated peptides and several different high mannose N-glycopeptides (labeled in the enlargement as: M5N2, M6N2). One hundred eighty-five micrograms RNase B was digested with 4 micrograms trypsin (New England Biolabs, Ipswich, Mass.) in trypsin digestion buffer and then filtered with a 10 kDa Microcon 10 centrifugal filter unit (Millipore, Billerica, Mass.) to remove trypsin and any undigested RNase B. PMSF (1 mM final concentration) was added to inhibit any residual trypsin. 100 micrograms SGP was added to the RNase B digest. Then immobilized binding reagent, SNAP-Fbs beads in this example, was mixed with the complex mixture and incubated at 4° C. for 1 hour in the presence of either low salt volatile buffer or high salt volatile buffer. The beads were washed with low salt volatile buffer or high salt volatile buffer, respectively. The bound N-glycopeptides were eluted using 50% acetonitrile, then lyophilized and analyzed by mass spec (LC-MS method). […] The dotted line indicates the chromatogram of the input mixture without enrichment. […]
The different peptides and N-glycopeptides present in the complex mixture described in Example 11 were quantified.

Fetuin and RNase B = test: Pull-down of Fetuin and RNase B mixture by immobilized Fbs beads; assay type: binding; settings: input defined as 1
Protocol: The same amount of wild-type Fbs, Fbs GYR mutant and PPRYR mutant proteins were conjugated to SNAP capture resin using the conditions described in Example 2 (FIG. 10B). Binding to RNase B with high mannose N-glycan and Fetuin with sialyated complex N-glycan linked glycomolecules was analyzed in a single experiment. A mixture of denatured Fetuin and RNase B (denatured by boiling for 10 minutes in the presence of 1× Rapid PNGase F buffer (New England Biolabs, Ipswich, Mass.) were pulled down by the immobilized Fbs beads conjugated with equal amount of WT, GYR or PPRYR Fbs proteins (FIGS. 10A and 10B). The bound fetuin and RNase B were eluted by 1× gel loading buffer, and analyzed by -PAGE/Coomassie blue staining. The amount of fetuin or RNase B on -PAGE gels were quantified using Image J. The ratio of Fetuin to RNase B (Fetuin/RNase B) is arbitrarily defined as 1 in the input (FIG. 10A, Lane 7 and 10C). In low salt volatile buffer conditions, wild-type Fbs pulled down a very small amount of Fetuin (FIG. 10A, Lane1), and the Fetuin/RNase B is only 0.29 (FIG. 10C), which indicates biased N-glycan linked glycomolecule binding. […]

SGP-TMR = molecular target: T3, SGP-TMR; test: Elution of bound SGP-TMR from Fbs beads; settings: 100 ul 2 M ammonium bicarbonate
Protocol: N-glycan linked glycomolecules reversibly binds to Fbs beads. Different reagents were tested for releasing bound N-linked glycopeptides from Fbs beads. 100 μl Fbs beads with bound SGP-TMR were collected, washed with 300 μl low salt binding buffer once, and divided into three aliquots (30 μl beads each aliquot). 100 ul of 2 M ammonium bicarbonate (NH4HCO3), 50% acetonitrile, or 1% acetic acid were added to Fbs beads with bound SGP-TMR to elute SGP-TMR. The beads were centrifuged and supernatants were collected. The solvent in the supernatant was removed by vacuum evaporation using a speedvac, and SGP-TMR was reconstituted in low salt buffer. SGP-levels were measured as described in Example 9. […] 1% Acetic acid released approximately 65% of SGP-TMR. In contrast, less than 30% of bound N-glycan linked glycomolecules were released with 2 M ammonium bicarbonate.

Molecule | binding of 2-AB labeled M3N2 [1] | binding of 2-AB labeled M3N2 [2] | enrichment of non-glycosylated peptides [3] | Fetuin/RNase B ratio (Fetuin and RNase B; high salt volatile buffer (2 M ammonium acetate pH 7.5)) | Fetuin/RNase B ratio (Fetuin and RNase B; low salt volatile buffer (50 mM ammonium acetate pH 7.5)) | bound N-glycan linked glycomolecules released (SGP-TMR)
CC(=O)N[C@H]1[C@H](O[C@@H]([C@H](O)[C@H](CNc2ccccc2C(N)=O)NC(C)=O)[C@H](O)CO)O[C@H](CO)[C@@H](O[C@@H]2O[C@H](CO[C@H]3O[C@H](CO)[C@@H](O)[C@H](O)[C@@H]3O)[C@@H](O)[C@H](O[C@H]3O[C@H](CO)[C@@H](O)[C@H](O)[C@@H]3O)[C@@H]2O)[C@@H]1O [2-AB labeled M3N2] | 2-AB labeling disrupts the interaction between glycan and Fbs and completely abolishes binding | – | – | – | – | –
B1 | – | disrupts the interaction | not enriched | 0.92 | 0.29 | less than 30%
